Where two headings read alike, the source gives them in different places.
Experiments:
Experiment in all cases: BLI
RaTG13 RBD protein [1] = target: RaTG13 RBD protein (RaTG13)
GD-pangolin RBD protein = GD-pangolin RBD protein (pangolin-CoV-GD)
SARS-CoV RBD protein = SARS-CoV RBD protein (SARS-CoV, UniProt P59594)
RaTG13 RBD protein [2] = target: RaTG13 RBD protein (RaTG13); remark: listed apart in the source
GX-pangolin RBD protein = GX-pangolin RBD protein (pangolin-CoV-GX)

B1: GW01 (antibody, V domains shown)
VH: EVQLVESGGGVVQPGGSLRLSCAASGFRFDDHAMHWVRQAPGKGLEWVSVISGDGGSTYYADSVKGRFSISRDDSKNSLYLQMNSLRTEDTALYYCAKDRSYGPPDVFNYEYGMDVWGQGTTVTVSS
VL: not shown
B1 was tested, and the Kd (RaTG13 RBD protein [1]) was 14.2 nM, the Kd (GD-pangolin RBD protein) was 4.05 nM and the Kd (SARS-CoV RBD protein) was 1.49 nM. It also gave a Kd (RaTG13 RBD protein [2]) of 14.4 nM and a Kd (GX-pangolin RBD protein) of 7.42 nM.

— article PMC9021188 (2022)
